The source of these data is article doi:10.1101/2020.11.26.395038 (bioRxiv, 2020).

To fix the notation:
B1: full-length MKK6 (residues 1-334) (enzyme, UniProt P52564 1-334, looked up)
chain: MSQSKGKKRNPGLKIPKEAFEQPQTSSTPPRDLDSKACISIGNQNFEVKADDLEPIMELGRGAYGVVEKMRHVPSGQIMAVKRIRATVNSQEQKRLLMDLDISMRTVDCPFTVTFYGALFREGDVWICMELMDTSLDKFYKQVIDKGQTIPEDILGKIAVSIVKALEHLHSKLSVIHRDVKPSNVLINALGQVKMCDFGISGYLVDSVAKTIDAGCKPYMAPERINPELNQKGYSVKSDIWSLGITMIELAILRFPYDSWGTPFQQLKQVVEEPSPQLPADKFSAEFVDFTSQCLKKNSKERPTYPELMQHPFFTLHESKGTDVASFVKLILGD
B2: constitutively active MKK6 variant MKK6_(1-334)^S207ET211E (enzyme, UniProt P52564 1-334, looked up)
chain: MSQSKGKKRNPGLKIPKEAFEQPQTSSTPPRDLDSKACISIGNQNFEVKADDLEPIMELGRGAYGVVEKMRHVPSGQIMAVKRIRATVNSQEQKRLLMDLDISMRTVDCPFTVTFYGALFREGDVWICMELMDTSLDKFYKQVIDKGQTIPEDILGKIAVSIVKALEHLHSKLSVIHRDVKPSNVLINALGQVKMCDFGISGYLVDEVAKEIDAGCKPYMAPERINPELNQKGYSVKSDIWSLGITMIELAILRFPYDSWGTPFQQLKQVVEEPSPQLPADKFSAEFVDFTSQCLKKNSKERPTYPELMQHPFFTLHESKGTDVASFVKLILGD

mitogen-activated protein kinase p38α (residues 2-349), sequence (Q16539 2-349): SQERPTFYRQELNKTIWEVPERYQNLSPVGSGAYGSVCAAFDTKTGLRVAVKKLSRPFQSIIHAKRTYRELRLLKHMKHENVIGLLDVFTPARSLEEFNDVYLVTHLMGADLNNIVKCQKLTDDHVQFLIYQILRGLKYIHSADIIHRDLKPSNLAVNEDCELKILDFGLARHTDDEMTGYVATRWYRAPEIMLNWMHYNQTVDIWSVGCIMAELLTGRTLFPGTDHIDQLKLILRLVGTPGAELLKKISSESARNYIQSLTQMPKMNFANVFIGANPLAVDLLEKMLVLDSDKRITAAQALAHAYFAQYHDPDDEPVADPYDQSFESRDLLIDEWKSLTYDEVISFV

This test concerns the target mitogen-activated protein kinase p38α (residues 2-349) (human, UniProt Q16539 2-349). Put plainly: ITC. In general terms: In ITC the heat of successive injections is recorded.
Broadly, the Kd is the constant that tells how readily two partners part at equilibrium. Read a low Kd as tighter binding. Turning to B1, binding was put at a Kd of 2 ± 0.1 µM.

On to B2, for which the Kd was 3.5 ± 1.4 µM.

In turn, SQSKGKKRNPGLKIPKEAF [MKK6KIM peptide] registered a Kd of 7 ± 2 µM. This Kd lies about 2-fold higher than the previous one.
